The values below come from patent US20230129258A1 (Bicycle, published 2023).

Assay [1] deals with T1, CD137 on Jurkat reporter cells (Promega kit CS196005) (UniProt Q07011 24-255, limits assumed). The experiment in a line: cell-based or functional assay.
Assay [2] deals with T1, CD137 on Jurkat reporter cells (Promega …). The experiment in a line: cell-based or functional assay. This is another data set of the same source.
Assay [3] concerns the target T2, human Nectin-4 extracellular domain (human, UniProt Q96NY8 32-349, biotinylated where captured on the streptavidin chip).
T2 construct: extracellular domain; also called Nectin-4 (human); Biotinylated - Nectin-4 extracellular domain
T2 sequence (looked up): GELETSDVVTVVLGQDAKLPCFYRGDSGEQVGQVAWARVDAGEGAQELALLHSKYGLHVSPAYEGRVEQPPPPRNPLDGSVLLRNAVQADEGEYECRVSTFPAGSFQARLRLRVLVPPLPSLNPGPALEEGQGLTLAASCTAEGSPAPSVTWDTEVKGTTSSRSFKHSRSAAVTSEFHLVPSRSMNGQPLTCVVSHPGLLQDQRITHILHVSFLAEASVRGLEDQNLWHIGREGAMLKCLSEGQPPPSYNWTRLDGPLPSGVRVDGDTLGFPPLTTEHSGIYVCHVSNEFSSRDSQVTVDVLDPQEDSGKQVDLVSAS
The experiment in a line: SPR, one example sensorgram (FIG. 21A), immobilized Nectin-4. For orientation: Surface plasmon resonance follows binding to a sensor surface in real time, without labels.

In assay [4] the target is T3, rat CD137 extracellular domain (rat, UniProt Q4W8J3 24-189).
T3 sequence: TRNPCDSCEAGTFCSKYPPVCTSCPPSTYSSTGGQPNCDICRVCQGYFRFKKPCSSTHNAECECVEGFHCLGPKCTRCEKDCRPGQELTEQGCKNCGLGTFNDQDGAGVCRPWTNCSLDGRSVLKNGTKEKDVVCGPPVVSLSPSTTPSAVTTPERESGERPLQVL
Kind of assay: SPR dual binding, BCY11863 captured on biotinylated human Nectin-4, n = 2.

In assay [5] the target is T4, mouse CD137 extracellular domain (mouse, UniProt P20334 24-187).
T4 construct: extracellular domain
T4 sequence (looked up): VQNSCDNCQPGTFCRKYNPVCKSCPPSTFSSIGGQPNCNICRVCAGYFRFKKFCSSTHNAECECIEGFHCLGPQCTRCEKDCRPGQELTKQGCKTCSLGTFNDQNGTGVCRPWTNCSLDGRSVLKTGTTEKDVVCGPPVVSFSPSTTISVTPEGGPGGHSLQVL
The description is as above.

The target of assay [6] is T5, rat Nectin-4 extracellular domain (rat, UniProt D3ZET1 31-348, biotinylated where captured on the streptavidin chip).
T5 construct: extracellular domain
T5 sequence: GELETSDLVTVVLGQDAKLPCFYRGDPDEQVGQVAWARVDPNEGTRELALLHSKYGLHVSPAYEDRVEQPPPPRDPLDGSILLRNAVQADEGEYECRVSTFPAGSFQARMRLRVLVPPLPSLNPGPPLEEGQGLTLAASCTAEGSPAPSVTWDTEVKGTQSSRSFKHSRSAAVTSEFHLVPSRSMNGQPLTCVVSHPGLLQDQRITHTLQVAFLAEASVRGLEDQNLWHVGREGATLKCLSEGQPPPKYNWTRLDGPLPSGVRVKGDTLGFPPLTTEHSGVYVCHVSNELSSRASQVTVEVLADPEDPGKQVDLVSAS
The experiment in a line: SPR direct binding, biotinylated Nectin-4 ECD on streptavidin chip, 25° C., n = 6.

The target in assay [7] is T2, human Nectin-4 extracellular domain. Kind of assay: SPR direct binding, biotinylated Nectin-4 ECD on streptavidin chip, 25° C., n = 7.
Assay [8] has as its target T6, human CD137 extracellular domain (human, UniProt Q07011 24-186, biotinylated where captured on the streptavidin chip).
T6 construct: extracellular domain; Section 17 says only 'Recombinant human CD137 (R&D systems)'; also called CD137 (human); Recombinant human CD137 (R&D systems)
The experiment in a line: SPR dual binding, BCY11863 captured on biotinylated human Nectin-4, soluble CD137 ECD passed over, n = 4.

Assay [9] concerns the target T7, cyno (NHP) Nectin-4 extracellular domain (cyno (NHP), UniProt A0A2K5WES1 32-349, biotinylated where captured on the streptavidin chip).
T7 construct: extracellular domain
T7 sequence: T2 sequence (looked up) with V39A, I230V
Kind of assay: SPR sandwich assay, BCY11863 captured on biotinylated human CD137, soluble Nectin-4 ECD passed over, n = 3.

The target of assay [10] is T5, rat Nectin-4 extracellular domain. The description is as above.
The target in assay [11] is T6, human CD137 extracellular domain. Kind of assay: SPR, direct binding of BCY11863 to immobilized human CD137, 1:1 fit; avidity from two CD137 bicycles.
Assay [12] shares this target. The experiment in a line: SPR, direct binding of BCY11863 to immobilized human CD137, 1:1 fit; the text says the reported KD may be an overestimation (avidity).
Assay [13] shares this target. The experiment in a line: SPR, direct binding of BCY11863 to immobilized human CD137, 1:1 fit; the text calls the off rate very slow (avidity from two CD137 bicycles).

Numbering of substitutions follows the chain as printed. Starred links: 1 amine or outer side, 2 acyl side, 3 side chain; linkers in the order of their positions; H or OH if unused. Positions of bridges follow the written chain, without caps; N, C: chain ends. Non-standard residues stand in square brackets, D forms with d. Chains are numbered I, II in the order given. No end group written: not given here. dLys(PYA) = D-lysine Nε-acylated with 4-pentynoic acid, clicked (triazole) to the linker azide, O=C(CCc1cn([*:3])nn1)NCCCC[C@@H](N[*:1])C(=O)[*:2]; TATA = O=C(CC[*:1])N1CN(C(=O)CC[*:2])CN(C(=O)CC[*:3])C1; 1Nal = N[C@@H](Cc1cccc2ccccc12)C(=O)O; Hyp = O=C(O)[C@@H]1C[C@@H](O)CN1; hArg = N=C(N)NCCCC[C@H](N)C(=O)O; tBuAla = CC(C)(C)C[C@H](N)C(=O)O; Nle = CCCC[C@H](N)C(=O)O

T1 sequence (Q07011 24-255 limits assumed): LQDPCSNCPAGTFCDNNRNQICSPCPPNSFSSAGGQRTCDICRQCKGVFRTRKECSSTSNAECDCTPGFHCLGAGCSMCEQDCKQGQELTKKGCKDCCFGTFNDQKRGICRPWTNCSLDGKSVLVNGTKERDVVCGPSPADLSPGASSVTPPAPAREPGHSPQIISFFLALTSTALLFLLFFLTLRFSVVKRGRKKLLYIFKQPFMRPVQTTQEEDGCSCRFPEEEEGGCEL
T6 sequence (Q07011 24-186): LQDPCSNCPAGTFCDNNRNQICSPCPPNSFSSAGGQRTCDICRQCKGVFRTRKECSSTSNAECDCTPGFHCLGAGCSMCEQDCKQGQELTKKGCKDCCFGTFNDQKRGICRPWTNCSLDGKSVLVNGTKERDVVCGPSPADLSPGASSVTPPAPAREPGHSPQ

B1: heterotandem bicyclic peptide complex BCY11863 (peptide)
peptide 1: CP[1Nal][dD]CM[hArg]DWSTP[Hyp]WC
peptide 2: Ac-C[tBuAla]PE[dLys(PYA)]PYCFADPY[Nle]CA
modifications: linker I:1-I:5-I:15, II:1-II:8-II:15 via TATA; not fully specified (bridges); also: 1:2 complex: BCY8116 + 2x BCY8928
notes: also called Nectin-4/CD137 heterotandem
For orientation: kon means the second-order rate constant of association. Low readings indicate slower complex formation, high ones faster complex formation. As a reminder, the koff is the rate constant with which the complex falls apart. Consider B1, for which the “EC50 (nM), NCI-H292 co-culture” value in [1] amounted to 0.168 nM. The “Fold Induction over Background, NCI-H292 co-culture” value in assay [1] was 81 fold. The “Fold improvement in EC50 over BCY10000 on same plate, NCI-H292” value in assay [2] turned out to be 4.56 fold. Also, in assay [2], the “Fold improvement in Emax over BCY10000 on same plate, NCI-H292” value was 2.16 fold. Besides, the Kd in assay [3] was 4.1 nM; in [6], 15 nM; in [7], 5 nM; in assay [8], 6.3 nM; in [9] it was 28 nM; in [10], 25 nM. The Kd in [12] is 0.368 nM. Also, the binding result in assay [4] and in assay [5] was “no binding” each time. In assay [11], this molecule returned a kon of 952000 M⁻¹ s⁻¹. Besides, the koff in assay [13] is 0.00035 s⁻¹.
